Among the data in publication PMC3407074 are koff, kon and Kd values, retold here.

pKd: −log10 of the molar value.

Assay [1] addresses recP12-Cd4d3/4-bio (Plasmodium falciparum). As to the kind of experiment: SPR; BIAcore T100, 37°C; recP12 captured on a streptavidin chip; two-fold dilutions from 3.6 µM recP41-Cd4d3/4-6H at 100 µL/min; kinetic analysis, 1:1 binding model.
The target is the same in assay [2]. Description: SPR; BIAcore T100, 37°C; recP12-Cd4d3/4-bio captured on a streptavidin chip, biotinylated Cd4d3/4 as reference; serial dilutions of recP41-Cd4d3/4-6H at 10 µL/min; equilibrium analysis, Langmuir isotherm. (In general: Surface plasmon resonance follows binding to a sensor surface in real time, without labels.)

By koff is commonly meant a measure of how fast the partners let go of each other. The term kon denotes the rate constant with which the complex forms. A higher kon goes with fast association. Broadly, the pKd is −log10 of the Kd, conventionally taken in molar units. In assay [1], recP41-Cd4d3/4-6H (domain or fragment) returned a koff of 0.0212 s⁻¹ and an on-rate constant (kon) of 134000 M⁻¹ s⁻¹. The pKd in assay [2] was 6.51.
